Test results published in PMC10786891, “Massively parallel profiling of RNA-targeting CRISPR-Cas13d”.

T1: EsCas13d, nuclease-dead (Eubacterium siraeum, UniProt B0MS50, R295A;H300A;R849A;H854A)
T1 sequence: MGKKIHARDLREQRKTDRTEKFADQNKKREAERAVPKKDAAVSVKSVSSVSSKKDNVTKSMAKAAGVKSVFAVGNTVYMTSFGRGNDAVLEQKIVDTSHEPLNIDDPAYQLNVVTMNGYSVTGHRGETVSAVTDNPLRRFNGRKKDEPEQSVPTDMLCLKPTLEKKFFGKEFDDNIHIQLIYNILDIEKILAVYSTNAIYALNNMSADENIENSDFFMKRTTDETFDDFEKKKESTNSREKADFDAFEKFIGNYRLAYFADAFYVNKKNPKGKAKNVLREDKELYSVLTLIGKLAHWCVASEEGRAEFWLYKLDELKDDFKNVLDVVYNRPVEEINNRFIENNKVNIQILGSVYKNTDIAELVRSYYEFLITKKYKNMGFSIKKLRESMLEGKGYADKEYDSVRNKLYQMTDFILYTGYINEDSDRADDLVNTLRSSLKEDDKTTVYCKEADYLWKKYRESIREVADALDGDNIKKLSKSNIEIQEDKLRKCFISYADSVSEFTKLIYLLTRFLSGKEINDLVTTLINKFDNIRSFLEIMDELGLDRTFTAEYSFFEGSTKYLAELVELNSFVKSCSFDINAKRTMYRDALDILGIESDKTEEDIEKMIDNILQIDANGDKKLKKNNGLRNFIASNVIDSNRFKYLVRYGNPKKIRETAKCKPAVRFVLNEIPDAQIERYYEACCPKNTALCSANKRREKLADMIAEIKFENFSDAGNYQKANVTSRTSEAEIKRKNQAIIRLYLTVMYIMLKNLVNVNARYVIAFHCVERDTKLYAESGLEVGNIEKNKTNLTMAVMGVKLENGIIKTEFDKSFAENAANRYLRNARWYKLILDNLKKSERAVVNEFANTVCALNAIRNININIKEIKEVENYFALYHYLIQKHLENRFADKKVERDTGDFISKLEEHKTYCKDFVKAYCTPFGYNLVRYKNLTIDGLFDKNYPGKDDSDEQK

B1: target 1 C6G,A18G (mixed)
RNA 1: CACCCGUGCAAAAAUGCAGGGGUCUAAAACUGAGCGGAUAACCUCUCUAUGG
RNA 2: GGGAAUGGAUCCACAUCUACGAAUUCGUACCAUGGAGAGGUUAUCGGCUCACCGAGAUCGGAAGAGCACACGU
B2: target 1 insC 3' of 19,insG 3' of 16 (mixed)
RNA 1: CACCCGUGCAAAAAUGCAGGGGUCUAAAACUGAGCGGAUAACCUCUCUAUGG
RNA 2: GGGAAUGGAUCCACAUCUACGAAUUCGUACCAUCAGAGGAGGUUAUCCGCUCACCGAGAUCGGAAGAGCACACGU
B3: target 1 insU 3' of 21,insG 3' of 3 (mixed)
RNA 1: CACCCGUGCAAAAAUGCAGGGGUCUAAAACUGAGCGGAUAACCUCUCUAUGG
RNA 2: GGGAAUGGAUCCACAUCUACGAAUUCGUACCUAUAGAGAGGUUAUCCGCUGCACCGAGAUCGGAAGAGCACACGU
B4: target 1 insU 3' of 14,insU 3' of 1 (mixed)
RNA 1: CACCCGUGCAAAAAUGCAGGGGUCUAAAACUGAGCGGAUAACCUCUCUAUGG
RNA 2: GGGAAUGGAUCCACAUCUACGAAUUCGUACCAUAGAGAUGGUUAUCCGCUCAUCCGAGAUCGGAAGAGCACACGU
B5: target 1 insG 3' of 19,insA 3' of 4 (mixed)
RNA 1: CACCCGUGCAAAAAUGCAGGGGUCUAAAACUGAGCGGAUAACCUCUCUAUGG
RNA 2: GGGAAUGGAUCCACAUCUACGAAUUCGUACCAUGAGAGAGGUUAUCCGCAUCACCGAGAUCGGAAGAGCACACGU
B6: target 1 insA 3' of 7,insG 3' of 6 (mixed)
RNA 1: CACCCGUGCAAAAAUGCAGGGGUCUAAAACUGAGCGGAUAACCUCUCUAUGG
RNA 2: GGGAAUGGAUCCACAUCUACGAAUUCGUACCAUAGAGAGGUUAUCACGGCUCACCGAGAUCGGAAGAGCACACGU
B7: target 1 U8G,G15C (mixed)
RNA 1: CACCCGUGCAAAAAUGCAGGGGUCUAAAACUGAGCGGAUAACCUCUCUAUGG
RNA 2: GGGAAUGGAUCCACAUCUACGAAUUCGUACCAUAGACAGGUUAGCCGCUCACCGAGAUCGGAAGAGCACACGU
B8: target 1 insG 3' of 9 (mixed)
RNA 1: CACCCGUGCAAAAAUGCAGGGGUCUAAAACUGAGCGGAUAACCUCUCUAUGG
RNA 2: GGGAAUGGAUCCACAUCUACGAAUUCGUACCAUAGAGAGGUUAGUCCGCUCACCGAGAUCGGAAGAGCACACGU
B9: target 1 insG 3' of 8,insC 3' of 1 (mixed)
RNA 1: CACCCGUGCAAAAAUGCAGGGGUCUAAAACUGAGCGGAUAACCUCUCUAUGG
RNA 2: GGGAAUGGAUCCACAUCUACGAAUUCGUACCAUAGAGAGGUUAUGCCGCUCACCCGAGAUCGGAAGAGCACACGU
B10: target 1 insC 3' of 12,insU 3' of 5 (mixed)
RNA 1: CACCCGUGCAAAAAUGCAGGGGUCUAAAACUGAGCGGAUAACCUCUCUAUGG
RNA 2: GGGAAUGGAUCCACAUCUACGAAUUCGUACCAUAGAGAGGCUUAUCCGUCUCACCGAGAUCGGAAGAGCACACGU
B11: target 1 insC 3' of 3,insG 3' of 1 (mixed)
RNA 1: CACCCGUGCAAAAAUGCAGGGGUCUAAAACUGAGCGGAUAACCUCUCUAUGG
RNA 2: GGGAAUGGAUCCACAUCUACGAAUUCGUACCAUAGAGAGGUUAUCCGCUCCAGCCGAGAUCGGAAGAGCACACGU
B12: target 1 insU 3' of 14,insA 3' of 10 (mixed)
RNA 1: CACCCGUGCAAAAAUGCAGGGGUCUAAAACUGAGCGGAUAACCUCUCUAUGG
RNA 2: GGGAAUGGAUCCACAUCUACGAAUUCGUACCAUAGAGAUGGUUAAUCCGCUCACCGAGAUCGGAAGAGCACACGU
B13: target 1 insC 3' of 3,insC 3' of 1 (mixed)
RNA 1: CACCCGUGCAAAAAUGCAGGGGUCUAAAACUGAGCGGAUAACCUCUCUAUGG
RNA 2: GGGAAUGGAUCCACAUCUACGAAUUCGUACCAUAGAGAGGUUAUCCGCUCCACCCGAGAUCGGAAGAGCACACGU
B14: target 1 G17A,C22U (mixed)
RNA 1: CACCCGUGCAAAAAUGCAGGGGUCUAAAACUGAGCGGAUAACCUCUCUAUGG
RNA 2: GGGAAUGGAUCCACAUCUACGAAUUCGUAUCAUAAAGAGGUUAUCCGCUCACCGAGAUCGGAAGAGCACACGU
B15: target 1 C6G,G17U (mixed)
RNA 1: CACCCGUGCAAAAAUGCAGGGGUCUAAAACUGAGCGGAUAACCUCUCUAUGG
RNA 2: GGGAAUGGAUCCACAUCUACGAAUUCGUACCAUAUAGAGGUUAUCGGCUCACCGAGAUCGGAAGAGCACACGU
B16: target 1 C2U,A20U (mixed)
RNA 1: CACCCGUGCAAAAAUGCAGGGGUCUAAAACUGAGCGGAUAACCUCUCUAUGG
RNA 2: GGGAAUGGAUCCACAUCUACGAAUUCGUACCUUAGAGAGGUUAUCCGCUUACCGAGAUCGGAAGAGCACACGU
B17: target 1 insC 3' of 17,insG 3' of 7 (mixed)
RNA 1: CACCCGUGCAAAAAUGCAGGGGUCUAAAACUGAGCGGAUAACCUCUCUAUGG
RNA 2: GGGAAUGGAUCCACAUCUACGAAUUCGUACCAUAGCAGAGGUUAUCGCGCUCACCGAGAUCGGAAGAGCACACGU
B18: target 1 insU 3' of 4,insA 3' of 4 (mixed)
RNA 1: CACCCGUGCAAAAAUGCAGGGGUCUAAAACUGAGCGGAUAACCUCUCUAUGG
RNA 2: GGGAAUGGAUCCACAUCUACGAAUUCGUACCAUAGAGAGGUUAUCCGCUAUCACCGAGAUCGGAAGAGCACACGU
B19: target 1 G12C,C22A (mixed)
RNA 1: CACCCGUGCAAAAAUGCAGGGGUCUAAAACUGAGCGGAUAACCUCUCUAUGG
RNA 2: GGGAAUGGAUCCACAUCUACGAAUUCGUAACAUAGAGAGCUUAUCCGCUCACCGAGAUCGGAAGAGCACACGU
B20: target 1 insG 3' of 14,insA 3' of 8 (mixed)
RNA 1: CACCCGUGCAAAAAUGCAGGGGUCUAAAACUGAGCGGAUAACCUCUCUAUGG
RNA 2: GGGAAUGGAUCCACAUCUACGAAUUCGUACCAUAGAGAGGGUUAUACCGCUCACCGAGAUCGGAAGAGCACACGU
B21: target 1 insA 3' of 22,insU 3' of 21 (mixed)
RNA 1: CACCCGUGCAAAAAUGCAGGGGUCUAAAACUGAGCGGAUAACCUCUCUAUGG
RNA 2: GGGAAUGGAUCCACAUCUACGAAUUCGUACACUAUAGAGAGGUUAUCCGCUCACCGAGAUCGGAAGAGCACACGU
B22: target 1 insA 3' of 6,insA 3' of 3 (mixed)
RNA 1: CACCCGUGCAAAAAUGCAGGGGUCUAAAACUGAGCGGAUAACCUCUCUAUGG
RNA 2: GGGAAUGGAUCCACAUCUACGAAUUCGUACCAUAGAGAGGUUAUCCAGCUACACCGAGAUCGGAAGAGCACACGU
B23: target 1 insU 3' of 22,insG 3' of 7 (mixed)
RNA 1: CACCCGUGCAAAAAUGCAGGGGUCUAAAACUGAGCGGAUAACCUCUCUAUGG
RNA 2: GGGAAUGGAUCCACAUCUACGAAUUCGUACUCAUAGAGAGGUUAUCGCGCUCACCGAGAUCGGAAGAGCACACGU
B24: target 1 insG 3' of 22,insA 3' of 4 (mixed)
RNA 1: CACCCGUGCAAAAAUGCAGGGGUCUAAAACUGAGCGGAUAACCUCUCUAUGG
RNA 2: GGGAAUGGAUCCACAUCUACGAAUUCGUACGCAUAGAGAGGUUAUCCGCAUCACCGAGAUCGGAAGAGCACACGU
B25: target 1 insA 3' of 5,insU 3' of 5 (mixed)
RNA 1: CACCCGUGCAAAAAUGCAGGGGUCUAAAACUGAGCGGAUAACCUCUCUAUGG
RNA 2: GGGAAUGGAUCCACAUCUACGAAUUCGUACCAUAGAGAGGUUAUCCGAUCUCACCGAGAUCGGAAGAGCACACGU
B26: target 1 C6G,U8G (mixed)
RNA 1: CACCCGUGCAAAAAUGCAGGGGUCUAAAACUGAGCGGAUAACCUCUCUAUGG
RNA 2: GGGAAUGGAUCCACAUCUACGAAUUCGUACCAUAGAGAGGUUAGCGGCUCACCGAGAUCGGAAGAGCACACGU
B27: target 1 C2A,G12A (mixed)
RNA 1: CACCCGUGCAAAAAUGCAGGGGUCUAAAACUGAGCGGAUAACCUCUCUAUGG
RNA 2: GGGAAUGGAUCCACAUCUACGAAUUCGUACCAUAGAGAGAUUAUCCGCUAACCGAGAUCGGAAGAGCACACGU
B28: target 1 U3C,C7A (mixed)
RNA 1: CACCCGUGCAAAAAUGCAGGGGUCUAAAACUGAGCGGAUAACCUCUCUAUGG
RNA 2: GGGAAUGGAUCCACAUCUACGAAUUCGUACCAUAGAGAGGUUAUACGCCCACCGAGAUCGGAAGAGCACACGU

The binders below were run against T1, EsCas13d, nuclease-dead (assay: crRNA (strand 1, pre-loaded); Mg2+; 40 mM Tris-HCl pH 7.5, 150 mM NaCl, 6 mM MgCl2, 1 mM DTT, 0.1% Tween-20, 0.2 mg/ml BSA; 25 C; 10 min per concentration, then washed). Conditions: tags: His6-TwinStrep-SUMO cleaved; N-terminal SNAP kept (SNAP-Surface 488); label: 3' end held by stalled T7 RNA polymerase.
Work on B1 yielded a Kd of 48 ± 7 nM. With B2 the Kd was 61 ± 11 nM. B3 showed a Kd of 16.8 ± 0.7 nM. With B4 the Kd was 48 ± 8 nM. For B5, the Kd was 34.8 ± 3.1 nM. Binder B6 has a Kd of 8.09 ± 0.34 nM. In the case of B7, the Kd is reported as 90 ± 19 nM. Work on B8 yielded a Kd of 17.2 ± 1 nM. B9 gave a Kd of 11.6 ± 0.5 nM. B10 gave a Kd of 11.6 ± 1.5 nM. For B11, the Kd was 11.1 ± 0.8 nM. B12 was tested, and the Kd was 43 ± 5 nM. Work on B13 yielded a Kd of 15.8 ± 1.1 nM. Work on B14 yielded a Kd of 59 ± 11 nM. In the case of B15, the Kd is reported as 31.4 ± 2.7 nM. Binder B16 has a Kd of 34 ± 4 nM. With B17 the Kd was 42 ± 7 nM. B18 gave a Kd of 9.1 ± 0.5 nM. With B19 the Kd was 25 ± 1.1 nM. For B20, the Kd was 10.6 ± 0.4 nM. B21 gave a Kd of 6.09 ± 0.28 nM. Work on B22 yielded a Kd of 21.5 ± 2.2 nM. B23 was tested, and the Kd was 22.8 ± 1.6 nM. B24 was tested, and the Kd was 17.9 ± 2.6 nM. For B25, the Kd was 6.6 ± 0.6 nM. Binder B26 has a Kd of 12.8 ± 0.6 nM. B27 showed a Kd of 4.57 ± 0.22 nM. In the case of B28, the Kd is reported as 8 ± 0.4 nM.
